Laboratory results reported in article PMC7179994 (2019).

Target: VLDL receptor (Homo sapiens, UniProt P98155)
Assay: SPR

Kd: 9.6 nM
B1: NDSK-II fragment of fibrin NDSK-II (central region) (protein)
chain 1: ADSGEGDFLAEGGGVRGPRVVERHQSACKDSDWPFCSDEDWNYKCPSGCRMKGLIDEVNQDFTNRINKLKNSLFEYQKNNKDSHSLTTNIMEILRGDFSSANNRDNTYNRVSEDLRSRIEVLKRKVIEKVQHIQLLQKNVRAQLVDMKRLEVDIDIKIRSCRGSCSRALAREVDLKDYEDQQKQLEQVIAKDLLPSRDRQHLPLIKMKPVPDLVPGNFKSQLQKVPPEWKALTDMPQMRMELERPGGNEITRGGSTSYGTGSETESPRNPSSAGSWNSGSSGPGSTGNRNPGSSGTGGTATWKPGSSGPGSTGSWNSGSSGTGSTGNQNPGSPRPGSTGTWNPGSSERGSAGHWTSESSVSGSTGQWHSESGSFRPDSPGSGNARPNNPDWGTFEEVSGNVSPGTRREYHTEKLVTSKGDKELRTGKEKVTSGSTTTTRRSCSKTVTKTVIGPDGHKEVTKEVVTSEDGSDCPEAMDLGTLSGIGTLDGFRHRHPDEAAFFDTASTGKTFPGFFSPMLGEFVSETESRGSESGIFTNTKESSSHHPGIAEFPSRGKSSSYSKQFTSSTSYNRGDSTFESKSYKMADEAGSEADHEGTHSTKRGHAKSRPVRDCDDVLQTHPSGTQSGIFNIKLPGSSKIFSVYCDQETSLGGWLLIQQRMDGSLNFNRTWQDYKRGFGSLNDEGEGEFWLGNDYLHLLTQRGSVLRVELEDWAGNEAYAEYHFRVGSEAEGYALQVSSYEGTAGDALIEGSVEEGAEYTSHNNMQFSTFDRDADQWEENCAEVYGGGWWYNNCQAANLNGIYYPGGSYDPRNNSPYEIENGVVWVSFRGADYSLRAVRMKIRPLVTQ
chain 2: QGVNDNEEGFFSARGHRPLDKKREEAPSLRPAPPPISGGGYRARPAKAAATQKKVERKAPDAGGCLHADPDLGVLCPTGCQLQEALLQQERPIRNSVDELNNNVEAVSQTSSSSFQYMYLLKDLWQKRQKQVKDNENVVNEYSSELEKHQLYIDETVNSNIPTNLRVLRSILENLRSKIQKLESDVSAQMEYCRTPCTVSCNIPVVSGKECEEIIRKGGETSEMYLIQPDSSVKPYRVYCDMNTENGGWTVIQNRQDGSVDFGRKWDPYKQGFGNVATNTDGKNYCGLPGEYWLGNDKISQLTRMGPTELLIEMEDWKGDKVKAHYGGFTVQNEANKYQISVNKYRGTAGNALMDGASQLMGENRTMTIHNGMFFSTYDRDNDGWLTSDPRKQCSKEDGGGWWYNRCHAANPNGRYYWGGQYTWDMAKHGTDDGVVWMNWKGSWYSMRKMSMKIRPFFPQQ
chain 3: YVATRDNCCILDERFGSYCPTTCGIADFLSTYQTKVDKDLQSLEDILHQVENKTSEVKQLIKAIQLTYNPDESSKPNMIDAATLKSRKMLEEIMKYEASILTHDSSIRYLQEIYNSNNQKIVNLKEKVAQLEAQCQEPCKDTVQIHDITGKDCQDIANKGAKQSGLYFIKPLKANQQFLVYCEIDGSGNGWTVFQKRLDGSVDFKKNWIQYKEGFGHLSPTGTTEFWLGNEKIHLISTQSAIPYALRVELEDWNGRTSTADYAMFKVGPEADKYRLTYAYFAGGDAGDAFDGFDFGDDPSDKFFTSHNGMQFSTWDNDNDKFEGNCAEQDGSGWWMNKCHAGHLNGVYYQGGTYSKASTPNGYDNGIIWATWKTRWYSMKKTTMKIIPFNRLTIGEGQQHHLGGAKQVRPEHPAETEYDSLYPEDDL
